± gives the standard deviation of the averaged measurements.
System: ATP
Experiment: switch fluorescence ratio, 500 uM ATP over buffer (Cy3 cluster intensity, sum of 5 cycles each) (fold (ratio)); higher = stronger signal-on switching upon ATP binding; sequences stand for … in TCGTCGGCAGCGTCAGATGTGTATAAGAGACAGTTTTTTTTTTTTTTTTTTTTTTTTT…TC
Conditions: aptamer strand: ATP DNA aptamer (quencher-CACCTGGGGGAGTATTGCGGAGGAAGG + anchor), 100 nM annealed; ATP concentration: 500 uM
Summary of the method: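 Between each of five buffer/ATP cycles, the flow-cell was stripped with NaOH and re-annealed. Each cycle imaged Cy3-labelled switching-strand clusters, annealed to 100 nM quencher-labelled ATP aptamer on a modified Illumina MiSeq flow-cell, first in selection buffer and then after 15 min with 500 uM ATP at 22 °C. The fluorescence ratio is summed target-cycle over summed buffer-cycle Cy3 intensity per cluster, averaged per switch-domain sequence, with clusters outside 100-1000 RFU excluded.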
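Further: ATP exposure 15 min at 22 °C before imaging.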

Sequence | switch fluorescence ratio
AATGACTCGT | 0.974 ± 0.01
AATGAGGCTT | 0.996 ± 0.011
AATGAGGGAG | 0.995 ± 0.01
AATGAGTCG | 0.991 ± 0.028
AATGAGTGGG | 1 ± 0.041
AATGAGTTTG | 0.991 ± 0.019
AATGATGCCG | 0.9864 ± 0.008
AATGATTTTG | 0.9765 ± 0.0065
AATGCAACTT | 1.01 ± 0.032
AATGCAGAGT | 0.983 ± 0.012
AATGCCTTTG | 1.02 ± 0.035
AATGCGGTTC | 0.9709 ± 0.0026
AATGCTCGGA | 0.981 ± 0.02
AATGCTCGTA | 1.01 ± 0.023
AATGCTTGAG | 1.05 ± 0.08
AATGGAAATC | 1.003 ± 0.0086
AATGGAAGGC | 1.09 ± 0.07
AATGGCATCG | 1.02 ± 0.011
AATGGCGCGC | 0.992 ± 0.017
AATGGCGGGT | 0.996 ± 0.034
AATGGCTCGC | 0.996 ± 0.061
AATGGGCACA | 1 ± 0.042
AATGGGCTAG | 0.993 ± 0.059
AATGGGGATC | 0.984 ± 0.062
AATGGGGATT | 1.01 ± 0.035

Sequence | switch fluorescence ratio
AATGGGGGTT | 1.02 ± 0.037
AATGGGTCTA | 0.985 ± 0.02
AATGGGTCTG | 0.978 ± 0.052
AATGGGTTAT | 0.992 ± 0.025
AATGGGTTCC | 1.027 ± 0.0044
AATGGGTTCT | 0.998 ± 0.079
AATGGGTTGT | 1.02 ± 0.032
AATGGTACGA | 1 ± 0.035
AATGGTCATG | 0.993 ± 0.075
AATGGTGCGC | 0.984 ± 0.017
AATGGTGTAA | 0.99259 ± 0.00066
AATGGTTAAG | 1 ± 0.054
AATGGTTTTG | 0.9921 ± 0.0034
AATGTCGCTG | 1.003 ± 0.0018
AATGTCTAGA | 0.975 ± 0.023
AATGTCTTTG | 0.984 ± 0.013
AATGTGAGGG | 0.9772 ± 0.0092
AATGTGCATA | 0.988 ± 0.011
AATGTGCCCA | 0.9775 ± 0.007
AATGTGCCGG | 1.01 ± 0.019
AATGTGGGGG | 0.996 ± 0.018
AATGTGTATG | 0.991 ± 0.033
AATGTTAGAA | 0.99 ± 0.05
AATGTTTCGG | 0.977 ± 0.022
AATGTTTGAC | 0.977 ± 0.038

Sequence | switch fluorescence ratio
AATGTTTGCT | 1 ± 0.018
AATTAAGAGG | 1 ± 0.011
AATTAATGAT | 0.981 ± 0.029
AATTACCAAA | 1.01 ± 0.072
AATTACCGGT | 0.979 ± 0.045
AATTAGAAGC | 0.9962 ± 0.0075
AATTAGAGGG | 0.984 ± 0.046
AATTAGTGTT | 0.99 ± 0.02
AATTAGTTGG | 0.9923 ± 0.0071
AATTAGTTGT | 0.9918 ± 0.0084
AATTATAAGA | 0.996 ± 0.027
AATTATCTCG | 1.01 ± 0.018
AATTATTGAG | 1.02 ± 0.038
AATTCAGGCA | 0.98668 ± 0.00049
AATTCAGTGT | 1.01 ± 0.025
AATTCATGTA | 0.9886 ± 0.0064
AATTCCGGTC | 1.093 ± 0.0066
AATTCCTATG | 1.04 ± 0.05
AATTCTAAAC | 0.9881 ± 0.0038
AATTCTGAGG | 0.977 ± 0.025
AATTGAAGAT | 1.03 ± 0.039
AATTGACTGT | 1.07 ± 0.025
AATTGAGGCG | 1.02 ± 0.089
AATTGCACCT | 1.22 ± 0.05
AATTGCGTGG | 0.988 ± 0.017

Sequence | switch fluorescence ratio
AATTGCTTTC | 1.06 ± 0.013
AATTGGGGCG | 0.969 ± 0.025
AATTGGGGGC | 0.98 ± 0.022
AATTGGGGTG | 1.06 ± 0.011
AATTGGTAGC | 0.966 ± 0.015
AATTGGTAGG | 1 ± 0.072
AATTGGTGAA | 1.01 ± 0.014
AATTGTACGG | 1.04 ± 0.013
AATTGTGGCT | 1 ± 0.025
AATTGTGGGG | 0.983 ± 0.057
AATTGTGTAT | 0.973 ± 0.026
AATTGTTGGC | 0.999 ± 0.035
AATTTACAGC | 1.03 ± 0.042
AATTTACGAA | 1.01 ± 0.019
AATTTACGGA | 1.06 ± 0.037
AATTTAGCCG | 0.977 ± 0.077
AATTTAGGGG | 0.989 ± 0.03
AATTTATCAG | 1.03 ± 0.039
AATTTATTGT | 1.003 ± 0.0013
AATTTCAAGG | 1 ± 0.048
AATTTCACCA | 0.999 ± 0.013
AATTTCGGAC | 1.07 ± 0.071
AATTTCGGAG | 1.02 ± 0.026
AATTTGAGGG | 0.979 ± 0.016
AATTTGATC | 1.03 ± 0.021

Sequence | switch fluorescence ratio
AATTTGCATG | 0.978 ± 0.013
AATTTGCGGG | 0.98 ± 0.024
AATTTGCTTT | 0.986 ± 0.036
AATTTGGCAT | 1.012 ± 0.0063
AATTTGGCCT | 1.05 ± 0.035
AATTTGGGGA | 0.968 ± 0.013
AATTTGTAGT | 1.03 ± 0.025
AATTTGTGTG | 0.99 ± 0.034
AATTTGTTTT | 1.02 ± 0.028
AATTTTAGCC | 0.987 ± 0.011
AATTTTATTT | 1.03 ± 0.062
AATTTTGCTT | 1.01 ± 0.015
AATTTTGGCT | 0.964 ± 0.03
AATTTTTTGG | 1 ± 0.046
ACAAAGGAGC | 1 ± 0.022
ACAAAGTAAA | 1.01 ± 0.035
ACAAATGGGA | 1.02 ± 0.044
ACAACAGGGG | 2.91 ± 0.65
ACAACCGTTT | 1.02 ± 0.027
ACAACTTTTT | 1.02 ± 0.044
ACAAGAATTA | 1.01 ± 0.055
ACAAGGGCGG | 1.01 ± 0.015
ACAAGTAATA | 1.06 ± 0.057
ACAAGTATTA | 1.017 ± 0.0051
ACAAGTGAGG | 1.02 ± 0.023

Sequence | switch fluorescence ratio
ACAAGTTTTG | 1.04 ± 0.0022
ACAATATTTT | 1.02 ± 0.02
ACAATCTTTA | 0.994 ± 0.03
ACAATTGTCG | 1.028 ± 0.01
ACACAACTGT | 1.14 ± 0.077
ACACAAGGCT | 1.03 ± 0.037
ACACACTCAA | 1.28 ± 0.029
ACACAGAGAG | 1.02 ± 0.033
ACACAGAGTT | 1.03 ± 0.014
ACACAGGGGG | 1.0997 ± 0.00043
ACACAGTATT | 1.0263 ± 0.00076
ACACATAGAC | 1.17 ± 0.051
ACACATTTTT | 1.011 ± 0.01
ACACCAGCTA | 0.9876 ± 0.0061
ACACCGGGTC | 1.21 ± 0.071
ACACGGGGAG | 1.01 ± 0.044
ACACGGGGGT | 1.01 ± 0.018
ACACGTAGTT | 0.984 ± 0.021
ACACTATCAC | 1.21 ± 0.049
ACACTTTTTT | 1 ± 0.055
ACAGAACAGT | 1.03 ± 0.016
ACAGAAGGGG | 1.02 ± 0.012
ACAGACTGAT | 1.1 ± 0.076
ACAGAGAAAT | 1.03 ± 0.036
ACAGAGGGTT | 1.03 ± 0.045

Sequence | switch fluorescence ratio
ACAGATTCTA | 0.984 ± 0.05
ACAGCATGCC | 0.997 ± 0.013
ACAGCATGTA | 0.9589 ± 0.0093
ACAGCGGATG | 1.028 ± 0.0095
ACAGCTAGTA | 0.986 ± 0.019
ACAGCTCGAG | 1 ± 0.02
ACAGCTGATG | 0.977 ± 0.059
ACAGGAAGAG | 1.05 ± 0.038
ACAGGACAGG | 1.14 ± 0.014
ACAGGACCGT | 1.11 ± 0.038
ACAGGAGGTG | 1.13 ± 0.035
ACAGGAGTTC | 0.968 ± 0.053
ACAGGCACGC | 1.069 ± 0.0017
ACAGGCGATC | 1.09 ± 0.018
ACAGGCTGAG | 0.9973 ± 0.0097
ACAGGCTTTT | 1 ± 0.018
ACAGGGAAAT | 0.994 ± 0.038
ACAGGGATTT | 1.03 ± 0.041
ACAGGGGGGT | 1.17 ± 0.24
ACAGGGTTCT | 0.987 ± 0.025
ACAGGTAAGG | 1.055 ± 0.0073
ACAGGTCTGT | 0.9797 ± 0.0047
ACAGGTGCCG | 1.13 ± 0.11
ACAGGTTGTT | 1.03 ± 0.071
ACAGGTTTGA | 1.03 ± 0.021

Sequence | switch fluorescence ratio
ACAGGTTTGC | 1.007 ± 0.0039
ACAGTAGGGA | 1.049 ± 0.0093
ACAGTCGGCG | 1.03 ± 0.021
ACAGTCTATT | 1.02 ± 0.043
ACAGTGAAAT | 1.02 ± 0.039
ACAGTGCGCG | 1.03 ± 0.083
ACAGTTTTGG | 1.017 ± 0.0047
ACATAAGGTA | 1.04 ± 0.03
ACATAAGGTT | 1.03 ± 0.052
ACATAGAAAA | 1.01 ± 0.044
ACATAGGGTA | 1.01 ± 0.013
ACATAGTCGA | 1.03 ± 0.045
ACATATGGAT | 1 ± 0.015
ACATATTTTA | 1.03 ± 0.016
ACATCAGATC | 1 ± 0.011
ACATCCATTT | 1.02 ± 0.05
ACATCCGAGT | 1.05 ± 0.054
ACATCGGAAC | 1.04 ± 0.015
ACATCGGGGG | 1.013 ± 0.0089
ACATCGGTTG | 0.976 ± 0.028
ACATCGTCGG | 1.014 ± 0.0091
ACATCTCAGT | 1.06 ± 0.059
ACATGAAGCA | 1.06 ± 0.025
ACATGAGATT | 1.04 ± 0.015
ACATGAGTGT | 1.02 ± 0.024

Reference: the supplement of paper PMC10126150
